The values that follow come from patent publication US20230203146A1.

Changes are numbered by the printed parent chain.

The chains are these.
B1: VHH 23C10 (VHH, not shown: small tags and cut ends)
VHH: EVQLVESGGGLVQPGGSLRLSCAASGFALDYYAIGWFRQAPGKEREGVSCISSSDGSTYYADSVKGRFTISRDNAKNTVYLQMNSLKPEDTAVYYCATDSLGYGSSCRMAPYEYDYWGQGTQVTVSS
B2: VHH 2G01 (VHH, not shown: small tags and cut ends)
VHH: EVQLVESGGGLVQAGGSLRLSCAASGRTISSYAMAWFRQAPGKEREFVAAISLSGDSTYYADSVKGRFTISRDNAKNTVYLQMNSLKPEDTAEYYCAATDWDFEDIPEYYCSGYGCDESLFDSWGQGTQVTVSS
B3: VHH 22G11 (VHH, not shown: small tags and cut ends)
VHH: EVQLVESGGGLVQAGGSLRLSCAVSGFTFDDYAIGWFRQAPGKEREGVSCISRSDGSPYYADSVKGRFTISSDNAKGTVYLQMSSLKPEDTAVYYCAASWSGAYYSGTYYCDRLYEYDAWGQGTQVTVSS
B4: VHH 10A03 (VHH, not shown: small tags and cut ends)
VHH: EVQLVESGGGSVQAGGSLRLSCAASERTFSPYAMGWFRQAPGKEREFVAHITWSAGSTYYADSVKGRFTISRDNAKNTVYLQMNSLKPEDTAVYYCAAKRRYGIVDRDYNDWGQGTQVTVSS
B5: VHH 25B01 (VHH, not shown: small tags and cut ends)
VHH: EVQLVESGGGLVQAGGSLRLSCAASGFTFDDYAIGWFRQAPGKEREGVSCISSSDGSTYYADSVKGRFTISSDNAKNTVYLQMNSLKPEDTAVYYCAAAWGASRLPIGTMPPYEYDYWGQGTQVTVSS
B6: VHH 15A06 (VHH, not shown: small tags and cut ends)
VHH: EVQLVESGGGLVQAGGSLRLSCAASGRTFSSYAMGWFRQAPGKEREFVARISWNGGSTYHADSVKGRFTISRDNPKNTVYLQMDSLKPEDAAIYYCAASIALVGGVTPHSYDYWGQGTQVTVSS
B7: VHH 19A03 (VHH, not shown: small tags and cut ends)
VHH: EVQLVESGGGLVQAGGSLRLSCAASGFTFDDYAIAWFRQAPGKEREGISCITPSDDRTYYADSVKGRFIISSDNAKNTVYLQMNSLKPEDTADYYCAAVPRLRGLGYWPYPEYEYDYWGQGTQVTVSS
B8: VHH 00903 (VHH, not shown: small tags and cut ends)
VHH: EVQLVESGGGLVQPGGSLRLSCAASGFTLDDYAIGWFRQAPGKEREGVSSIRDNGGSTYYADSVKGRFTISSDNSKNTVYLQMNSLRPEDTAVYYCAAVPAGRLRFGEQWYPIYEYDAWGQGTLVTVSS
B9: VHH 00900 (VHH, not shown: small tags and cut ends)
VHH: B8 VHH with P14A, A24V, G55D, S75D, R87K, I113L
B10: VHH 00910 (VHH, not shown: small tags and cut ends)
VHH: B8 VHH with F27I, L29I, F106Y
B11: VHH 00906 (VHH, not shown: small tags and cut ends)
VHH: B8 VHH with L29I, F106Y
B12: VHH 00914 (VHH, not shown: small tags and cut ends)
VHH: B8 VHH with F27L, L29I, F106Y
B13: VHH 00899 (VHH, not shown: small tags and cut ends)
VHH: B8 VHH with P14A, N54I, G55D, S75D, R87K, I113L
B14: VHH 00911 (VHH, not shown: small tags and cut ends)
VHH: B8 VHH with F27L
B15: VHH 00907 (VHH, not shown: small tags and cut ends)
VHH: B8 VHH with F27I
B16: VHH 00904 (VHH, not shown: small tags and cut ends)
VHH: B8 VHH with F106Y
B17: VHH 00898 (VHH, not shown: small tags and cut ends)
VHH: B8 VHH with P14A, S50A, G55D, S75D, R87K, I113L
B18: VHH 00905 (VHH, not shown: small tags and cut ends)
VHH: B8 VHH with L29I
B19: VHH 00913 (VHH, not shown: small tags and cut ends)
VHH: B8 VHH with F27L, L29I
B20: VHH 00923 (VHH, not shown: small tags and cut ends)
VHH: B8 VHH with E1D, S50A, I113L
B21: VHH 00909 (VHH, not shown: small tags and cut ends)
VHH: B8 VHH with F27I, L29I
B22: VHH 00902 (VHH, not shown: small tags and cut ends)
VHH: B8 VHH with P14A, S50A, N54S, S75D, R87K, I113L
B23: VHH 00912 (VHH, not shown: small tags and cut ends)
VHH: B8 VHH with F27L, F106Y
B24: VHH 00044 (VHH, not shown: small tags and cut ends)
VHH: EVQLVESGGGLVQPGGSLRLSCAASGFALDYYAIGWFRQAPGKEREGVSCISSSDGITYYVDSVKGRFTISRDNSKNTVYLQMNSLRPEDTAVYYCATDSGGYIDYDCMGLGYDYWGQGTLVTVSS
B25: VHH 00046 (VHH, not shown: small tags and cut ends)
VHH: B24 VHH with D55G
B26: VHH 00924 (VHH, not shown: small tags and cut ends)
VHH: B24 VHH with E1D, D55G, V61A
B27: VHH 00930 (VHH, not shown: small tags and cut ends)
VHH: B24 VHH with D55G, V61A, D99E, M109R
B28: VHH 00926 (VHH, not shown: small tags and cut ends)
VHH: B24 VHH with D55G, V61A, M109Q
B29: VHH 00931 (VHH, not shown: small tags and cut ends)
VHH: B24 VHH with D55G, V61A, D99E, M109S
B30: VHH 00045 (VHH, not shown: small tags and cut ends)
VHH: B24 VHH with V61A
B31: VHH 00920 (VHH, not shown: small tags and cut ends)
VHH: B24 VHH with D55G, V61A
B32: VHH 00928 (VHH, not shown: small tags and cut ends)
VHH: B24 VHH with D55G, V61A, M109S
B33: VHH 00929 (VHH, not shown: small tags and cut ends)
VHH: B24 VHH with D55G, V61A, D99E, M109Q
B34: VHH 00927 (VHH, not shown: small tags and cut ends)
VHH: B24 VHH with D55G, V61A, M109R
B35: VHH 00039 (VHH, not shown: small tags and cut ends)
VHH: EVQLVESGGGLVQPGGSLRLSCAASGFTFDDYALGWFRQAAGKEREGVSCIRCSDGSTYYADSVKGRFTISRDNSKNTVYLQMNSLRPEDTAVYYCAASIVPRSKLEPYEYDAWGQGTLVTVSS
B36: VHH 00921 (VHH, not shown: small tags and cut ends)
VHH: B35 VHH with A41P, D55G, R72S
B37: VHH 00925 (VHH, not shown: small tags and cut ends)
VHH: B35 VHH with E1D, A41P, D55G, R72S
B38: VHH 00040 (VHH, not shown: small tags and cut ends)
VHH: B35 VHH with A41P
B39: VHH 00049 (VHH, not shown: small tags and cut ends)
VHH: B35 VHH with R72S
B40: VHH 00050 (VHH, not shown: small tags and cut ends)
VHH: B35 VHH with A41P, R72S
B41: VHH 00051 (VHH, not shown: small tags and cut ends)
VHH: B35 VHH with D55G, R72S
B42: VHH 3A07 (VHH, not shown: small tags and cut ends)
VHH: EVQLVESGGGLVQPGGSLRLSCAASGFTLDYDAIGWFRQAPGKEREGVSCITSSDGITYYADSVKGRFTISRDNAKNTVYLQMNSLKPEDTAVYYCATGNRRIYYSDYALACFPYEYDYWGQGTQVTVSS
B43: VHH 2F04 (VHH, not shown: small tags and cut ends)
VHH: EVQLVESGGGLVQAGGSLRLSCAASGFAFDDHLIGWFRQAPGKEREAVSCISRSAGSTYYADSVKGRFTISSDNAKNTVYLQMNSLKADDTAVYYCAAGPAWGRPASPLPYEYDYWGQGTQVTVSS

Usually IC50 stands for the concentration needed to halve the response being measured. Lower therefore signals greater potency in that assay.

In the first test the target is FLAG tagged human Ang2 (Alexis Biochemicals) (human) (UniProt O15123). In words: competition ELISA, periplasmic extract, FLAG-hAng2 on hTie2/Fc.
FLAG tagged human Ang2 (Alexis Biochemicals) (human), sequence (O15123 19-496): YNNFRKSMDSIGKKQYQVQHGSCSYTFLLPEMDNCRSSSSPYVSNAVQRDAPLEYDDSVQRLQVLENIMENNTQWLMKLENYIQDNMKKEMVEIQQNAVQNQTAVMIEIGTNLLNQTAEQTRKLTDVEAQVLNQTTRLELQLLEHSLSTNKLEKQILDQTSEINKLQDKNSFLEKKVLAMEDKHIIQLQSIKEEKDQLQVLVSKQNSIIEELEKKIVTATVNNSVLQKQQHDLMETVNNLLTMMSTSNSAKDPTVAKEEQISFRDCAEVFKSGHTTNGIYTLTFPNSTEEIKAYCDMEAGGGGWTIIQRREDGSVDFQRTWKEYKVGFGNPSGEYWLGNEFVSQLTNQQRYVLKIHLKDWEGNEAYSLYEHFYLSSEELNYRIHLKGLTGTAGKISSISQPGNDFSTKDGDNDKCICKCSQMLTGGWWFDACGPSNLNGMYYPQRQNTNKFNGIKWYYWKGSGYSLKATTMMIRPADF
For B1, the % inh was 37%.
With B2, the % inh stood at 39%.
B3 returned a % inh of 100%.
B4 gave a % inh of 0%.
On the same count and under the same terms, to B5 belongs 5%.
The same measure, in the same setting: to B6 belongs 0%; to B7, 74%.

The target in a further test is FLAG-tagged human Ang2 (human) (UniProt O15123). In words: competition ELISA: FLAG-hAng2 binding to coated hTie2-Fc. For orientation: ELISA stands for enzyme-linked immunosorbent assay.
FLAG-tagged human Ang2 (human), sequence (O15123 19-496): as above
B8: the IC50 was 0.089 nM.
The same measure, in the same setting: the same measure for B9: 0.2 nM.
On the same count and under the same terms, to B10 belongs 0.042 nM; to B11, 0.045 nM; to B12, 0.037 nM.
Still for that read-out and setting: to B13 belongs 0.9 nM; to B14, 0.059 nM.
Regarding B15, the IC50 was found to be 0.062 nM.
In the case of B16, the IC50 was determined as 0.062 nM.
Turning to B17, the IC50 was determined as 1.2 nM.
In turn, B18 showed an IC50 of 0.079 nM.
Molecule B19 showed an IC50 of 0.042 nM.
Still for that read-out and setting: the same measure for B20: 0.7 nM.
Same read-out and setting: the same measure for B21: 0.053 nM; for B22: 1.3 nM.
On to B23, for which the IC50 was 0.062 nM.
On the same count and under the same terms, to B24 belongs 0.069 nM; to B25, 0.095 nM.
In turn, B26 registered an IC50 of 0.11 nM.
In turn, B27 displayed a half-maximal inhibitory concentration (IC50) of 0.19 nM.
In turn, B28 came in with an IC50 of 0.25 nM.
Still for that read-out and setting: to B29 belongs 0.17 nM; to B30, 0.12 nM.
Same read-out and setting: to B31 belongs 0.13 nM; to B32, 0.22 nM.
The molecule B33 showed an IC50 of 0.15 nM.
On to B34, for which the IC50 turned out to be 0.22 nM.
On the same count and under the same terms, the same measure for B35: 11.9 nM.
B36 displayed an IC50 of 30.4 nM.
Same read-out and setting: the same measure for B37: 22.1 nM; for B38: 6.4 nM.
On to B39, for which the IC50 came out at 6.9 nM.
The molecule B40 showed an IC50 of 6 nM.
Same read-out and setting: to B41 belongs 16.1 nM.

For the next test, the target named is FLAG tagged human Ang2 (Alexis Biochemicals) (human) (UniProt O15123). In words: AlphaScreen competition, periplasmic extract, FLAG-hAng2 / biotin-hTie2/Fc. (Alpha assays give light when donor and acceptor beads are brought close together.)
On to B1, for which the % inh amounted to 57%.
The same measure, in the same setting: to B2 belongs 55%; to B3, 96%; to B4, 67%.
Regarding B5, the % inh was 61%.
Consider B6, for which the % inh was found to be 72%.
Still for that read-out and setting: to B7 belongs 74%.

A further test has the same target. In words: competition ELISA, FLAG-hAng2 (0.02 nM) on coated hTie2/Fc.
As for B42, the IC50 is 21 nM.
In the case of B43, the IC50 was found to be 2.8 nM.
